Measurements taken from the DeepSol protein solubility set.

Test: soluble on expression in E. coli; label from the status in PepcDB or PDB records

| Sequence | soluble on expression in E. coli |
| --- | --- |
| FVNVGERTNVTGSKMFARLVREEKYDEALAVARQQVENGAQIIDVNMDEAMLDSVACMHRFLNLIASEPDIARVPVMIDSSKWEVIETGLKCVQGKAVVNSISMKEGEEPFRHHARLCRRYGAAMVVMAFDEQGQADSLERRKEICGRAYRILVEEEGFPPEDIIFDPNVFAVATGIDEHNHYAVDFIEGARWIRANLPHARISGGISNVSFSFRGNEPMREAIHTVFLYYAIEAGLTMGIVNAGQLGVYADLAPHLRDLVEDVILDRPE | not soluble |
| DETIHLERGENLFEIHINKVTFSSEVLQASGDKEPVTFCTYAFYDFELQTTPVVRGLHPEYNFTSQYLVHVNDLFLQYIQKNTITLEVHQAYSTEYETIAACQLKFHEILEKSGRIFCTASLIGTKGDIPNFGTVEYWFRLRV | soluble |
| MPIPKSAKSDYTKEQKDLVGNICQCKDFYKILNVDKKASPDEIRIAFRKRIREVHPDKCKHPSATEASKVVNNAFSLLMDPAKRRQYDLQNAETSNENLYKRCNRNKNQRKQEYSNTQRQNHKKSEPSNGKRNEQNSSFKQDHNSKNHQSNHQKTKNKKSNPYSNQNNFNNTRKDYREEKSGFSWNTGSA | not soluble |
| MNPLRSIQHNITTPPISGGQPLDAVGPQAQQSHPKRISPSQLSQSAHQALERLSANAEHQRLASLVRNALQDGTFQFQSSNHTQVTYKASICLPADTDTVRTDHLINNELTVQARLNDQSEYDIVSAHLHGSSKAISFDVPSPPPAHGSASSVLSERTHLGMSSVLSQDAVDSSSLETPLVSSPDHSRPPSQPKPVHIGSVRRDSGSLVSDNPVVQALLSFVQADQAFPPQAASIAGVQLEMRSRRDIEQALEELKGAFTVEKAQLMSGGSSSERVDEDVNADIHIPLLLKAIERGAGAFGPGALIEIADGGQISAKAFLASCAPTITSNDDVLSEFINQKLKGDDDLQVRLGAQELLHVATKKEFQLGGLAGSIGVSSILGSAWELGASELLKNAIFGKNFSPSQYALQLAGIDSVPPFIIEAMDSFCVLVIIKGMKGELWSMKDLLPKALKAGAISSAMSFPNNVLQYAGFKSRVADLAANSITTEAAIFGAASGIPPEVKESEELMRAGLFQSMKDGVMAHPGEGMDTKETIERMTRHALDIAPGESTAVKSMGLAAIVGMIPLIASSKATGLVSEQILRIFRNAVFNPIEAIALNALALGGRVNVPGLFDSDNAKHARVAQTILARASQHMEAGDREISAEELHQMLAPRSEFLRHVGSAIVNGMNASFEAIPALVRKLGYGEAPLAERIPYQDLAVPDTSRQPAP | not soluble |
| MVVKFTKSEALHKEALEHIVGGVNSPSRSFKAVGGGAPIAMERGKGAYFWDVDGNKYIDYLAAYGPIITGHAHPHITKAITTAAENGVLYGTPTALEVKFAKMLKEAMPALDKVRFVNSGTEAVMTTIRVARAYTGRTKIMKFAGCYHGHSDLVLVAAGSGPSTLGTPDSAGVPQSIAQEVITVPFNNVETLKEALDKWGHEVAAILVEPIVGNFGIVEPKPGFLEKVNELVHEAGALVIYDEVITAFRFMYGGAQDLLGVTPDLTALGKVIGGGLPIGAYGGKKEIMEQVAPLGPAYQAGTMAGNPASMASGIACLEVLQQEGLYEKLDELGATLEKGILEQAAKHNIDITLNRLKGALTVYFTTNTIEDYDAAQDTDGEMFGKFFKLMLQEGVNLAPSKYEAWFLTTEHTKEDIEYTIEAVGRAFAALADNK | soluble |
| MSLAESQLSKLDVNLQSLNPYTFSKTRCIVNLHISDDTKNRDPSTTNGSYSNSQLLSNGEHVCYHFSQDYCVLSIYPVTDAITGKTVVVHLPHETFNDHHTFTMAEEDGCIVMDLILKTGLFLTLRFSLEYLFNRNADINSSWYSLLKPYDFTVRLPDYLYKVNSALSIVYLNDGGLLGLQKTQTSGSDEYDLHPVLFNDNSYFQSFTRFFSHNDSGRENVVSSVSYGDYHLLTLTENCKLRIWDLRTNSVTAQLNLITDPQDKHRKYESIGPYLALLDSVLVVFLPFGNGAFRTFQLSVNNSGGLVLTPRGELIRTNLSTASIWSLVDTKLTKPFELNIETSYLQMVVLWKSNTSIKLQILNFETEALDKHSWVEASNKSLPDILDNDILGDNFEQSLLDLKAHYTPAIYEEAQRILSANGEGHHHHHH | not soluble |
| MGNSCQNGTYGNNYQNSNRFQNDRFASRYVDGNDTEDCYSGSSRASLAGALRQGLNLKSPVLGYKTPNVRELYTLGRELGQGQFGKTYLCTEISTGCQYACKTILKSNLRCVSDIEDVRREIQIMHHLSGQKNIVTIKDTYEDEQAVHIVMELCAGGELFSKIQKRGHYSERKAAELIKIIVGIIETCHSHGVMHRDLKPENFLLLDADDEFSVKAIDFGLSVFFRPGQVFREVVGSPYYIAPEVLEKRYGPEADIWTAGVILYVLLTGVPPFWADTQSGIYEKVLDGRIDFKSNRWPRISDSAKDLIKKMLCPYPSERLKAHEVLKHPWICDNGVATNRALDPSVLPRLKQFSAMNRLKKLSLQIIAERLSEEEIVGLREMFKAMDTKNRSVVTFGELKGLKRYSSVFKDTEINDLMEAADDTTSTINWEEFIAAAVSLNKIEREKHLMAAFTYFDKDGSGFITVDKLQKACMERNMEDTFLEEMILEVDQNNDGQIDYAEFVTMMQSNNFGLGWQTVESSLNVALREAPQVY | not soluble |
| MTNGFPILRLPSKPLRSILQTMKFVELVSISFTSKVAKRHVKALNMKVSYINMFLSRLTIRLVVNFNGTLPLNFRIPDRNVSEPRKLNKKLNYMKVKEGPIFEETEVFEWKPSGIRFKEIANHVLEIFHKSEFSTLMISHDYDYKTMLQELKDFKIRKLCISSDRIQNSELRRNLLEKYSRQFRELALDYHSLKPQEFHLIVSISYNNCYLYKVPMKLEDLLVSNIFLMCIDKPCPLKQLCLFLKHWINGSNDRLEYLEMNLPANSTKTQFISIALNGIDYQLASTDKEWESANNGLIKTTVVKTGGFDIRQNDGTIATVTVDETFQKLRMFVWK | not soluble |
| MKLNLEREKKILLKNRNRYRYFHKPGVSIIVCTNKMKYIENIFSNYSRINYPIKEMIIILNKMNLNISKYKKVAERFSNVRIIKKPENVTLGKCLNYGVDISKYNYIFKMDDDDYYGENYICDEITSLIYTNSDIVGKASFFVYYEGYGRLEIMYPEGNEKYIPNVAGSTLLIKKSVFNKVRFRNISLAEDACFIEDCCKQGIKIYSCNRFNYVYFKHRSLNDHTWKISSEDLMKVTKKVGKYKNYLPIVTILEHHHHHH | not soluble |
| MDKKPSILIFIVAYNAESTIENVLMRIPADLLDDFDAEVLVIDDQSSDDTVLRCAETIQSGKIRFKTNVLVNPENQGYGGNQKVGYQYAIEHDFDCVALLHGDGQYAPEYLRDLITPVTKGEAEAVFGSRMMTPFGALKGGMPAYKFVGNKILTLFQNIMLKTSLSEFHSGYRAYSVKALKQIPFHLNTPDFHFDTEIIIQLILWGFRIAERPIPTYYGDEICYVNGLKYALDVVITTTKARMQRLGLFHECKYEVIHPHNSNGYPEAKLSIKSPSGNRILEHHHHHH | not soluble |
| MAHHHHHHMHRRTLRRLQQVVQNPPVGSANIPSPYATEGGHVPIWSIVNGFVQKRNWVFRNPEWCDLCKEPVALWVNHHGRKDHALMDMHYTQMVEFPRRWNPEEILAVFLEELGLSVEAYQKYYGGYEREHRNELYAMLVALEEAKMLHFGEPRDTYLYRMQGGLRGMDHQGALVLHRYILGPFMRIYPNGHIQDYSNLVDFVTCAYNMETVYDLCGFYTLDKVALKADYKPSSPAALGLGGIAVHSSATHGFAQQAMEKPQQSPQPQPQRHMTVGTGGRSAADMEEEAFSRKAVFVRQLLGQLRWLTLPDEEHPAGHMFPQHLMFLGEICLKSLVAEIVAARLCEYMVRVEPVWRDHGYERVKLDVDKIMRKENDILPEPVKFFYRPMSPKMDDLYSTNRGNLDEALEKAVVAPVSGKGA | soluble |
| MGSDKIHHHHHHMRSITTNYSDDGYNFAFLDEQTKRMVRRTLLKALSIPGYQVPFGGREMPLASGWGTGGIQITASVLGPNDRLKVIDQGADDTTNAVSIRRFFQTVADISVTESTEEATIIQTRHRVPEAPLTEGQILVYQVPEPEPLRKLIPRESETRKMHAYAEYGAMQVTLYENIARFGRIAKTYDYPAMINGRFLMSPSPIPKFDNPKMANNPAIQFWGAGREKRIYAVPPYTSVRSLDFDDHPFEVQTWQGCCALCGSTVSYLDEVITDDKGSRMFVCSDTDFCNTRQAQAAAQPNSAGGES | not soluble |
| MAHHHHHHMEEQESAENINMIKETIFGLPNSVILKIIHNNINLKNYKIRKEAVTTLGRCLSMFILYITDGALEHCEGEKRNTIFVRDILNSLDDSLFLDIYDELKRQIAIQEEIHKKESAKEAKSAAKGDTPSGADNAQGETNQVNKQDDLDILLQALE | soluble |
